Substrate in the series: N[C@@H](CC(=O)O)C(=O)O
In words: Spectrophotometric aspartase assay, deamination of L-aspartic acid to fumarate (240 nm). In kind it is biochemical, Escherichia coli. To be noted: 30 mM Hepes pH 7.0, 10 mM magnesium acetate, 30° C. As for the experimental part:
Catalytic activity was determined spectrophotometrically by measuring the formation of fumarate at 240 nm (E240 =2.53 mM^-1 cm^-1) produced by the enzyme-catalyzed deamination of aspartic acid. A standard assay mix contained 30 mM Hepes buffer, pH 7.0, 10 mM magnesium acetate, and varying concentrations of L-aspartic acid at 30° C.

B1: E. coli aspartase truncated variant Y472stop, residues 1-471 of SEQ ID NO: 1 (Escherichia coli K-12) (protein)
chain: MSNNIRIEEDLLGTREVPADAYYGVHTLRAIENFYISNNKISDIPEFVRGMVMVKKAAAMANKELQTIPKSVANAIIAACDEVLNNGKCMDQFPVDVYQGGAGTSVNMNTNEVLANIGLELMGHQKGEYQYLNPNDHVNKCQSTNDAYPTGFRIAVYSSLIKLVDAINQLREGFERKAVEFQDILKMGRTQLQDAVPMTLGQEFRAFSILLKEEVKNIQRTAELLLEVNLGATAIGTGLNTPKEYSPLAVKKLAEVTGFPCVPAEDLIEATSDCGAYVMVHGALKRLAVKMSKICNDLRLLSSGPRAGLNEINLPELQAGSSIMPAKVNPVVPEVVNQVCFKVIGNDTTVTMAAEAGQLQLNVMEPVIGQAMFESVHILTNACYNLLEKCINGITANKEVCEGYVYNSIGIVTYLNPFIGHHNGDIVGKICAETGKSVREVVLERGLLTEAELDDIFSVQNLMHPAYKAKR
notes: made in house; host or cells: E. coli overproducing strain
For B1, where the note is “other: Y472stop”, the Km was 3.3 mM, the kcat worked out at 1.62 ± 0.102 s⁻¹ and the kcat/Km was 492 M⁻¹ s⁻¹.

B2: E. coli aspartase truncated variant Y467stop (stop codon at position 467) (Escherichia coli K-12; E32V) (protein)
chain: MSNNIRIEEDLLGTREVPADAYYGVHTLRAIVNFYISNNKISDIPEFVRGMVMVKKAAAMANKELQTIPKSVANAIIAACDEVLNNGKCMDQFPVDVYQGGAGTSVNMNTNEVLANIGLELMGHQKGEYQYLNPNDHVNKCQSTNDAYPTGFRIAVYSSLIKLVDAINQLREGFERKAVEFQDILKMGRTQLQDAVPMTLGQEFRAFSILLKEEVKNIQRTAELLLEVNLGATAIGTGLNTPKEYSPLAVKKLAEVTGFPCVPAEDLIEATSDCGAYVMVHGALKRLAVKMSKICNDLRLLSSGPRAGLNEINLPELQAGSSIMPAKVNPVVPEVVNQVCFKVIGNDTTVTMAAEAGQLQLNVMEPVIGQAMFESVHILTNACYNLLEKCINGITANKEVCEGYVYNSIGIVTYLNPFIGHHNGDIVGKICAETGKSVREVVLERGLLTEAELDDIFSVQNLMHPA
notes: made in house; host or cells: E. coli (aspA in pTZ18R)
Regarding B2, under “other: Y467stop”, the Km turned out to be 31 mM, the turnover number (kcat) was 0.0417 ± 0.013 s⁻¹ and the specificity constant (kcat/Km) stood at 1.33 M⁻¹ s⁻¹.

B3: E. coli aspartase truncated variant A469stop, residues 1-468 of SEQ ID NO: 1 (Escherichia coli K-12) (protein)
chain: MSNNIRIEEDLLGTREVPADAYYGVHTLRAIENFYISNNKISDIPEFVRGMVMVKKAAAMANKELQTIPKSVANAIIAACDEVLNNGKCMDQFPVDVYQGGAGTSVNMNTNEVLANIGLELMGHQKGEYQYLNPNDHVNKCQSTNDAYPTGFRIAVYSSLIKLVDAINQLREGFERKAVEFQDILKMGRTQLQDAVPMTLGQEFRAFSILLKEEVKNIQRTAELLLEVNLGATAIGTGLNTPKEYSPLAVKKLAEVTGFPCVPAEDLIEATSDCGAYVMVHGALKRLAVKMSKICNDLRLLSSGPRAGLNEINLPELQAGSSIMPAKVNPVVPEVVNQVCFKVIGNDTTVTMAAEAGQLQLNVMEPVIGQAMFESVHILTNACYNLLEKCINGITANKEVCEGYVYNSIGIVTYLNPFIGHHNGDIVGKICAETGKSVREVVLERGLLTEAELDDIFSVQNLMHPAYK
notes: as for B1
On to B3, for which, where the note is “other: A469stop”, the Michaelis constant (Km) turned out to be 10.2 mM, the kcat turned out to be 0.66 ± 0.0167 s⁻¹ and the kcat/Km came out at 65 M⁻¹ s⁻¹.

B4: E. coli aspartase (L-aspartate ammonia-lyase, E.C. 4.3.1.1), wild-type, SEQ ID NO: 1 (Escherichia coli K-12) (protein)
chain: MSNNIRIEEDLLGTREVPADAYYGVHTLRAIENFYISNNKISDIPEFVRGMVMVKKAAAMANKELQTIPKSVANAIIAACDEVLNNGKCMDQFPVDVYQGGAGTSVNMNTNEVLANIGLELMGHQKGEYQYLNPNDHVNKCQSTNDAYPTGFRIAVYSSLIKLVDAINQLREGFERKAVEFQDILKMGRTQLQDAVPMTLGQEFRAFSILLKEEVKNIQRTAELLLEVNLGATAIGTGLNTPKEYSPLAVKKLAEVTGFPCVPAEDLIEATSDCGAYVMVHGALKRLAVKMSKICNDLRLLSSGPRAGLNEINLPELQAGSSIMPAKVNPVVPEVVNQVCFKVIGNDTTVTMAAEAGQLQLNVMEPVIGQAMFESVHILTNACYNLLEKCINGITANKEVCEGYVYNSIGIVTYLNPFIGHHNGDIVGKICAETGKSVREVVLERGLLTEAELDDIFSVQNLMHPAYKAKRYTDESEQ
notes: made in house; host or cells: E. coli overproducing strain (aspA in pTZ18R)
As to B4, the Km (other: wild-type) is 1.8 mM.

B5: E. coli aspartase truncated variant R471stop, residues 1-470 of SEQ ID NO: 1 (Escherichia coli K-12) (protein)
chain: MSNNIRIEEDLLGTREVPADAYYGVHTLRAIENFYISNNKISDIPEFVRGMVMVKKAAAMANKELQTIPKSVANAIIAACDEVLNNGKCMDQFPVDVYQGGAGTSVNMNTNEVLANIGLELMGHQKGEYQYLNPNDHVNKCQSTNDAYPTGFRIAVYSSLIKLVDAINQLREGFERKAVEFQDILKMGRTQLQDAVPMTLGQEFRAFSILLKEEVKNIQRTAELLLEVNLGATAIGTGLNTPKEYSPLAVKKLAEVTGFPCVPAEDLIEATSDCGAYVMVHGALKRLAVKMSKICNDLRLLSSGPRAGLNEINLPELQAGSSIMPAKVNPVVPEVVNQVCFKVIGNDTTVTMAAEAGQLQLNVMEPVIGQAMFESVHILTNACYNLLEKCINGITANKEVCEGYVYNSIGIVTYLNPFIGHHNGDIVGKICAETGKSVREVVLERGLLTEAELDDIFSVQNLMHPAYKAK
notes: as for B1
With B5, where the note is “other: R471stop”, the Km is 4.5 mM, the catalytic constant (kcat) is 1.18 ± 0.0483 s⁻¹ and the catalytic efficiency (kcat/Km) was 262 M⁻¹ s⁻¹.

B6: E. coli aspartase truncated variant D474stop, residues 1-473 of SEQ ID NO: 1 (Escherichia coli K-12) (protein)
chain: MSNNIRIEEDLLGTREVPADAYYGVHTLRAIENFYISNNKISDIPEFVRGMVMVKKAAAMANKELQTIPKSVANAIIAACDEVLNNGKCMDQFPVDVYQGGAGTSVNMNTNEVLANIGLELMGHQKGEYQYLNPNDHVNKCQSTNDAYPTGFRIAVYSSLIKLVDAINQLREGFERKAVEFQDILKMGRTQLQDAVPMTLGQEFRAFSILLKEEVKNIQRTAELLLEVNLGATAIGTGLNTPKEYSPLAVKKLAEVTGFPCVPAEDLIEATSDCGAYVMVHGALKRLAVKMSKICNDLRLLSSGPRAGLNEINLPELQAGSSIMPAKVNPVVPEVVNQVCFKVIGNDTTVTMAAEAGQLQLNVMEPVIGQAMFESVHILTNACYNLLEKCINGITANKEVCEGYVYNSIGIVTYLNPFIGHHNGDIVGKICAETGKSVREVVLERGLLTEAELDDIFSVQNLMHPAYKAKRYT
notes: as for B1
Regarding B6, for the setting “other: D474stop”, the Km was found to be 2.8 mM, the kcat was 0.712 ± 0.127 s⁻¹ and the kcat/Km worked out at 255 M⁻¹ s⁻¹.

The Km is the substrate concentration at which the rate is half of its maximum. The kcat is the number of substrate molecules converted per active site and unit of time at saturation. As a reminder, the kcat/Km is the turnover number divided by the Michaelis constant.

The record behind these values is US6133013A, “Truncated aspartase enzyme derivatives and uses thereof” (The University of Akron, priority 1999, dated 2000).
